Source: patent US20150110787A1 (SAMSUNG ELECTRONICS, published 2015)

Tests used:
[1] = molecular target: T1, FLAG-tagged human VEGF-C (Accession # P49767) (human, UniProt P49767 112-227, limits assumed); assay: competitive ELISA: human VEGR-R3-Fc coated, 200 ng/ml FLAG-tagged human VEGF-C plus scFv (1-1000 nM), anti-FLAG-HRP; competitor VEGR-R3-Fc
T1 construct: not shown: FLAG tag
T1 sequence (looked up): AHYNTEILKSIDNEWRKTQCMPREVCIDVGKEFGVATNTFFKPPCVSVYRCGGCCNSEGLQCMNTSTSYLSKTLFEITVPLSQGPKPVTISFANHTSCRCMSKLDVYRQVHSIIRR
Procedure: To examine the effect of the anti-VEGF-C antibody purified in Example 2 on the inhibition of VEGF-C:VEGR-R3 binding, a competitive ELISA, which is used for verification of molecular interaction, was performed. MaxiSorp™ flat-bottom plate (Nunc) of 96-wells was coated with […] of human VEGR-R3-Fc (R&D Systems. Accession No. P35916) which is a fusion protein composed of human VEGR-R3 and Fc of human IgG1. Thereafter, the plate was washed 5 times with phosphate buffer saline (PBS) supplemented with 0.05%(v/v) Tween-20, and then blocked with PBS supplemented with 1%(v/v) bovine serum albumin (BSA; Sigma) at room temperature for 2 hours.
To perform the VEGF-C:VEGR-R3 neutralization ELISA, the anti-VEGF-C antibody (concentration: 1 nM, 10 nM, 100 nM, or 1000 nM) purified in Example 2 was added to each well coated with the human VEGR-R3-Fc, together with a mixture of 1%(v/v) BSA and 200 ng/ml of FLAG-tagged human VEGF-C (Accession # P49767), and incubated at room temperature for 2 hours. Thereafter, the plate was washed 5 times with PBS supplemented with 0.05% (v/v) Tween-20. […] Then, the reaction was stopped by addition of 50 μl of 5N H₂SO₄ solution, and OD450 value was measured using plate reader (Molecular Devices).

[2] = molecular target: T2, human VEGF-C polypeptide (R&D Systems; Accession # P49767) (human, UniProt P49767 103-227, limits assumed); assay: SPR, BIAcore T100; antibody captured on anti-human Fc antibody on a CM5 chip, recombinant VEGF-C flowed from 200 nM
T2 construct: Bought protein; also called hVEGF-C; Recombinant VEGF-C protein (R&D Systems)
T2 sequence (looked up): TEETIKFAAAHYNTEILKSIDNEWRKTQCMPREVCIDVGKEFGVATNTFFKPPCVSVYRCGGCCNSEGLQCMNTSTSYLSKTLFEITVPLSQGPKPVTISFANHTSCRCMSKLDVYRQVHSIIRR
Procedure: To accurately measure the affinity of the anti-VEGF-C antibody to its antigen, VEGF-C, Surface Plasmon Resonance (SPR) method was conducted using BIAcore T100 (GE Healthcare). The SPR method is based on a principle that the refractive index of light passing through a sensor chip varied depending on the condition of the substance coated on the sensor chip. If an antibody or an antigen is flowed on the chip which is coated with an antigen or an antibody, the binding between the antigen and the antibody leads to change in refractive index, and Kd value can be calculated based on the refractive index.
25 μg/ml of anti-human Fc antibody (Sigma) was fixed on CM5 sensor chip (GE Healthcare) using pH 5.0 sodium acetate solution and amine coupling kit (GE Healthcare). 2 μg/ml of the anti-VEGF-C antibody obtained in Example 2 was added on the chip to be captured.
Recombinant VEGF-C protein (R&D Systems) was serially diluted with HBS-P (GE-Health) solution starting from the concentration of 200 nM and flowed on the chip, leading to binding (on) to and dissociating (off) from the antibody, thereby measuring the antigen-antibody affinity.

[3] = molecular target: T2, human VEGF-C polypeptide (R&D Systems; …); assay: ELISA on coated human VEGF-C (1 ug/ml), anti-HA-HRP detection; 50% binding concentration, given as Kd
Procedure: ELISA for verifying the binding affinity of the anti-VEGF-C antibody in scFv form purified in Example 2 to its antigen was carried out. MaxiSorp™ flat-bottom plate (Nunc) of 96-wells was coated with 1 μg/ml of human VEGF-C(R&D Systems) for 16 hours. The plate was then washed 5 times with phosphate buffer saline (PBS) supplemented with 0.05%(v/v) Tween-20, and then blocked with PBS supplemented with 1%(v/v) bovine serum albumin (BSA; Sigma) at room temperature for 2 hours. The anti-VEGF-C antibody in scFv form purified in Example 2 was added to each well of the plate and was incubated at room temperature for 2 hours.
The plate was washed 5 times with PBS supplemented with 0.05% (v/v) Tween-20. HRP-conjugated anti-HA antibody (HA-probe Antibody (F-7) HRP conjugated) (Santacruz) diluted with PBS supplemented with 1%(v/v) BSA was added at the dilution ratio of 1:1,000 (v/v) and was incubated at room temperature for 1 hour. The reacted well was washed 5 times with PBS supplemented with 0.1%(v/v) Tween-20. Finally, tetramethylbenzidine (TMB) substrate (Cell Signal) was added to each well of the plate at the amount of 100 μl to induce coloring reaction at room temperature for 3 minutes. Then, the reaction was stopped with 50 μl of 5N H₂SO₄ solution, and OD450 value was measured on plate reader (Molecular Devices).

[4] = molecular target: T1, FLAG-tagged human VEGF-C (Accession # …); assay: competitive ELISA: human VEGR-R3-Fc coated, 200 ng/ml FLAG-tagged human VEGF-C plus IgG (1-1000 nM), anti-FLAG-HRP; competitor VEGR-R3-Fc
Procedure: MaxiSorp™ flat-bottom plate (Nunc) of 96-wells was coated with […] of human VEGR-R3-Fc (R&D Systems. Accession No. P35916) which is a protein produced by coupling human VEGR-R3 with Fc of human IgG1. Thereafter, the plate was washed 5 times with phosphate buffer saline (PBS) supplemented with 0.05%(v/v) Tween-20, and then blocked with PBS supplemented with 1%(v/v) bovine serum albumin (BSA; Sigma) at room temperature for 2 hours.
For performing the VEGF-R3:VEGF-C neutralization ELISA, the anti-VEGF-C antibody (concentration: 1 nM, 10 nM, 100 nM, or 1000 nM) in IgG form purified in Example 6 was added to each well of the human VEGR-R3-Fc coated plate, together with a mixture of 1%(v/v) BSA and 200 ng/ml of FLAG-tagged human VEGF-C (Accession # P49767), and then, the plate was reacted at room temperature for 2 hours. Thereafter, the plate was washed 5 times with PBS supplemented with 0.05% (v/v) Tween-20. HRP-conjugated anti-FLAG antibody (SIGMA) was diluted with PBS supplemented with 1%(v/v) BSA at the dilution ratio of 1:5,000 (v/v), and added to each well in the amount of 100 μl, to react at room temperature for 1 hour. The reacted well was washed 5 times with PBS supplemented with 0.1%(v/v) Tween-20. […] Then, the reaction was stopped with 50 μl of 5N H₂SO₄ solution, and OD450 value was measured on plate reader (Molecular Devices).

B1: SAIT-VEGFC-AB-4A2, anti-VEGF-C antibody in scFv form purified in Example 2 (scFv, V domains shown)
VH: EVQLLESGGGLVQPGGSLRLSCAASGFTFSSYDMSWVRQAPGKGLEWVSAISYDNGSTYYADSVKGRFTISRDNSKNTLYLQMNSLRAEDTAVYYCARDPYLARLNTFDYWGQGTLVTVSS
VL: QSVLTQPPSASGTPGQRVTISCSGSSSNIGSNNVSWYQQLPGTAPKLLIYYNSHRPSGVPDRFSGSKSGTSASLAISGLRSEDEADYYCATWDSSLNGYVFGGGTKLTVL
notes: Expressed in the E. coli periplasm and partially purified on Ni-NTA; also called anti-VEGF-C scFv antibody
IC50 [1]: 33.4 nM | Kd [2]: 0.345 nM | koff [2]: 0.00258 s⁻¹ | kon [2]: 7.45e+06 M⁻¹ s⁻¹ | Kd [3]: 26.2 nM

B2: SAIT-VEGFC-AB-4A2, anti-VEGF-C antibody in IgG form purified in Example 6 (antibody, V domains shown)
VH: EVQLLESGGGLVQPGGSLRLSCAASGFTFSSYDMSWVRQAPGKGLEWVSAISYDNGSTYYADSVKGRFTISRDNSKNTLYLQMNSLRAEDTAVYYCARDPYLARLNTFDYWGQGTLVTVSS
VL: QSVLTQPPSASGTPGQRVTISCSGSSSNIGSNNVSWYQQLPGTAPKLLIYYNSHRPSGVPDRFSGSKSGTSASLAISGLRSEDEADYYCATWDSSLNGYVFGGGTKLT
notes: VH was cloned into pOPTI-VAC, which carries the human IgG1 constant region and Fc; Expressed in 293-F cells and purified on Protein A
IC50 [4]: 9.2 nM
